Consider six molecules from patent US20230110958A1 (Regeneron, published 2023).

This assay concerns the target T1, murine IL27 receptor (IL27Ra and gp130) on mouse cells (MC9/STAT3-Luc reporter cells; splenic CD4+ T cells) (mouse, UniProt O70394 25-623; Q00560 23-917).
T1 sequence (looked up) 1: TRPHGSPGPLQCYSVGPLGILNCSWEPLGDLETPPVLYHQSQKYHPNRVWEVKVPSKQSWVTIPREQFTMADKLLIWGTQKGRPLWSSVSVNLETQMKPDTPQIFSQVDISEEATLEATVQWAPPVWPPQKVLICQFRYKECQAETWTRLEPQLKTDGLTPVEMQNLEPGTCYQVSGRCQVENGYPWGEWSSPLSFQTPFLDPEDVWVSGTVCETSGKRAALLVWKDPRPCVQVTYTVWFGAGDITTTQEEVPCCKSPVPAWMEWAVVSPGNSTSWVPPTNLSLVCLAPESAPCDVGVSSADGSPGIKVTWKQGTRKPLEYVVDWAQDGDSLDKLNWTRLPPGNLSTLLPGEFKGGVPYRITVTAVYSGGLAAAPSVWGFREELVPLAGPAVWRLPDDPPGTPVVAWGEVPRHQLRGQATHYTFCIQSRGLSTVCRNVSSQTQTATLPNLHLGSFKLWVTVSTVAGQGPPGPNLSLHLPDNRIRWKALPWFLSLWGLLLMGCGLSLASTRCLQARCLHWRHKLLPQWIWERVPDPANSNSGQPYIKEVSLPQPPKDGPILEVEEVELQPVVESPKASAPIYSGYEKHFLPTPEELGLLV
T1 sequence (looked up) 2: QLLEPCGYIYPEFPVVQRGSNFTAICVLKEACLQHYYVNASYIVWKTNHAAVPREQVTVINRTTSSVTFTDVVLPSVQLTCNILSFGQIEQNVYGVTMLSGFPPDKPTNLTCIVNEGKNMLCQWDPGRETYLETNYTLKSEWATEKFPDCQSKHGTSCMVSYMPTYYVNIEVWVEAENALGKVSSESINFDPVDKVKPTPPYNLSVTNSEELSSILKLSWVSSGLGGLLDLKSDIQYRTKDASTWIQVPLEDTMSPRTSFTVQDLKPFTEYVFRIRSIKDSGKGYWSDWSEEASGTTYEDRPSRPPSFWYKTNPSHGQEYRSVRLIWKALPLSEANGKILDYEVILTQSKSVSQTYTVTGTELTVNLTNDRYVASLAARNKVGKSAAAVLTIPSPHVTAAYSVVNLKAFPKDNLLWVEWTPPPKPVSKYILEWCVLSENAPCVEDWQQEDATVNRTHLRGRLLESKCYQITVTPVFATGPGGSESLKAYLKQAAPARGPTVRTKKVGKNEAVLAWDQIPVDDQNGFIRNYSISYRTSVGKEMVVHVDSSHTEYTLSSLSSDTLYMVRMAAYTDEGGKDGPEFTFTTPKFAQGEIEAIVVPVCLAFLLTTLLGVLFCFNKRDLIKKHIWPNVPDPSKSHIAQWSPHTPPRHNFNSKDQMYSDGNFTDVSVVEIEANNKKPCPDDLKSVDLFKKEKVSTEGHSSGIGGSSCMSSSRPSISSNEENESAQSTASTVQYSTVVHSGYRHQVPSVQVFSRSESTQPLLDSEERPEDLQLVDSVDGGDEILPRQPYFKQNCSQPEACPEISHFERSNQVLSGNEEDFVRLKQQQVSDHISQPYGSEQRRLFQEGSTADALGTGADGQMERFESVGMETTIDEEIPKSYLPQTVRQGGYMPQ
In words: cell-based or functional assay.

B1: IL27M5, Bivalent Fc-p28-EBI3 (Fc fusion)
chain: ESKYGPPCPPCPAPPVAGPSVFLFPPKPKDTLMISRTPEVTCVVVDVSQEDPEVQFNWYVDGVEVHNAKTKPREEQFNSTYRVVSVLTVLHQDWLNGKEYKCKVSNKGLPSSIEKTISKAKGQPREPQVYTLPPSQEEMTKNQVSLTCLVKGFYPSDIAVEWESNGQPENNYKTTPPVLDSDGSFFLYSRLTVDKSRWQEGNVFSCSVMHEALHNHYTQKSLSLSLGKGGGGSGGGGSGGGGSFPTDPLSLQELRREFTVSLYLARKLLSEVQGYVHSFAESRLPGVNLDLLPLGYHLPNVSLTFQAWHHLSDSERLCFLATTLRPFPAMLGGLGTQGTWTSSEREQLWAMRLDLRDLHRHLRFQVLAAGFKCSKEEEDKEEEEEEEEEEKKLPLGALGGPNQVSSQVSWPQLLYTYQLLHSLELVLSRAVRDLLLLSLPRRPGSAWDSGGGGSGGGGSGGGGSGGGGSGGGGSYTETALVALSQPRVQCHASRYPVAVDCSWTPLQAPNSTRSTSFIATYRLGVATQQQSQPCLQRSPQASRCTIPDVHLFSTVPYMLNVTAVHPGGASSSLLAFVAERIIKPDPPEGVRLRTAGQRLQVLWHPPASWPFPDIFSLKYRLRYRRRGASHFRQVGPIEATTFTLRNSKPHAKYCIQVSAQDLTDYGKPSDWSLPGQVESAPHKP
As to B1, the “EC50 (M), STAT3 luciferase, MC9 cells” value is 4.19e-10 M and the “FOLD INDUCTION, STAT3 luciferase, MC9 cells” value (“FOLD INDUCTION” for short) is 2.91 fold.

B2: IL27M6, monovalent Fc-p28 x EBI3 (Fc fusion)
chain 1: ESKYGPPCPPCPAPPVAGPSVFLFPPKPKDTLMISRTPEVTCVVVDVSQEDPEVQFNWYVDGVEVHNAKTKPREEQFNSTYRVVSVLTVLHQDWLNGKEYKCKVSNKGLPSSIEKTISKAKGQPREPQVYTLPPSQEEMTKNQVSLWCLVKGFYPSDIAVEWESNGQPENNYKTTPPVLDSDGSFFLYSRLTVDKSRWQEGNVFSCSVMHEALHNHYTQKSLSLSLGKGGGGSGGGGSGGGGSFPTDPLSLQELRREFTVSLYLARKLLSEVQGYVHSFAESRLPGVNLDLLPLGYHLPNVSLTFQAWHHLSDSERLCFLATTLRPFPAMLGGLGTQGTWTSSEREQLWAMRLDLRDLHRHLRFQVLAAGFKCSKEEEDKEEEEEEEEEEKKLPLGALGGPNQVSSQVSWPQLLYTYQLLHSLELVLSRAVRDLLLLSLPRRPGSAWDS
chain 2: ESKYGPPCPPCPAPPVAGPSVFLFPPKPKDTLMISRTPEVTCVVVDVSQEDPEVQFNWYVDGVEVHNAKTKPREEQFNSTYRVVSVLTVLHQDWLNGKEYKCKVSNKGLPSSIEKTISKAKGQPREPQVYTLPPSQEEMTKNQVSLSCAVKGFYPSDIAVEWESNGQPENNYKTTPPVLDSDGSFFLVSRLTVDKSRWQEGNVFSCSVMHEALHNRFTQKSLSLSPGKGGGGSGGGGSGGGGSYTETALVALSQPRVQCHASRYPVAVDCSWTPLQAPNSTRSTSFIATYRLGVATQQQSQPCLQRSPQASRCTIPDVHLFSTVPYMLNVTAVHPGGASSSLLAFVAERIIKPDPPEGVRLRTAGQRLQVLWHPPASWPFPDIFSLKYRLRYRRRGASHFRQVGPIEATTFTLRNSKPHAKYCIQVSAQDLTDYGKPSDWSLPGQVESAPHKP
On to B2, for which the “EC50 (M), STAT3 luciferase, MC9 cells” value came out at 3.21e-11 M and the “FOLD INDUCTION” value worked out at 2.8 fold.

B3: IL27M13, Bivalent p28-Fc (Fc fusion)
chain: FPTDPLSLQELRREFTVSLYLARKLLSEVQGYVHSFAESRLPGVNLDLLPLGYHLPNVSLTFQAWHHLSDSERLCFLATTLRPFPAMLGGLGTQGTWTSSEREQLWAMRLDLRDLHRHLRFQVLAAGFKCSKEEEDKEEEEEEEEEEKKLPLGALGGPNQVSSQVSWPQLLYTYQLLHSLELVLSRAVRDLLLLSLPRRPGSAWDSGGGGSGGGGSGGGGSESKYGPPCPPCPAPPVAGPSVFLFPPKPKDTLMISRTPEVTCVVVDVSQEDPEVQFNWYVDGVEVHNAKTKPREEQFNSTYRVVSVLTVLHQDWLNGKEYKCKVSNKGLPSSIEKTISKAKGQPREPQVYTLPPSQEEMTKNQVSLTCLVKGFYPSDIAVEWESNGQPENNYKTTPPVLDSDGSFFLYSRLTVDKSRWQEGNVFSCSVMHEALHNHYTQKSLSLSLGK
As to B3, the “FOLD INDUCTION” value was found to be 1.11 fold.

B4: IL27M12, monovalent EBI3-p28 x Fc (Fc fusion)
chain 1: YTETALVALSQPRVQCHASRYPVAVDCSWTPLQAPNSTRSTSFIATYRLGVATQQQSQPCLQRSPQASRCTIPDVHLFSTVPYMLNVTAVHPGGASSSLLAFVAERIIKPDPPEGVRLRTAGQRLQVLWHPPASWPFPDIFSLKYRLRYRRRGASHFRQVGPIEATTFTLRNSKPHAKYCIQVSAQDLTDYGKPSDWSLPGQVESAPHKPGGGGSGGGGSGGGGSGGGGSFPTDPLSLQELRREFTVSLYLARKLLSEVQGYVHSFAESRLPGVNLDLLPLGYHLPNVSLTFQAWHHLSDSERLCFLATTLRPFPAMLGGLGTQGTWTSSEREQLWAMRLDLRDLHRHLRFQVLAAGFKCSKEEEDKEEEEEEEEEEKKLPLGALGGPNQVSSQVSWPQLLYTYQLLHSLELVLSRAVRDLLLLSLPRRPGSAWDSGGGGSGGGGSGGGGSESKYGPPCPPCPAPPVAGPSVFLFPPKPKDTLMISRTPEVTCVVVDVSQEDPEVQFNWYVDGVEVHNAKTKPREEQFNSTYRVVSVLTVLHQDWLNGKEYKCKVSNKGLPSSIEKTISKAKGQPREPQVYTLPPSQEEMTKNQVSLWCLVKGFYPSDIAVEWESNGQPENNYKTTPPVLDSDGSFFLYSRLTVDKSRWQEGNVFSCSVMHEALHNHYTQKSLSLSLGK
chain 2: ESKYGPPCPPCPAPPVAGPSVFLFPPKPKDTLMISRTPEVTCVVVDVSQEDPEVQFNWYVDGVEVHNAKTKPREEQFNSTYRVVSVLTVLHQDWLNGKEYKCKVSNKGLPSSIEKTISKAKGQPREPQVYTLPPSQEEMTKNQVSLSCAVKGFYPSDIAVEWESNGQPENNYKTTPPVLDSDGSFFLVSRLTVDKSRWQEGNVFSCSVMHEALHNRFTQKSLSLSPGK
B4: the “EC50 (M), STAT3 luciferase, MC9 cells” value turned out to be 1.22e-11 M and the “FOLD INDUCTION” value came out at 2.68 fold.

B5: IL27M3, Bivalent p28-EBI3-Fc (Fc fusion)
chain: FPTDPLSLQELRREFTVSLYLARKLLSEVQGYVHSFAESRLPGVNLDLLPLGYHLPNVSLTFQAWHHLSDSERLCFLATTLRPFPAMLGGLGTQGTWTSSEREQLWAMRLDLRDLHRHLRFQVLAAGFKCSKEEEDKEEEEEEEEEEKKLPLGALGGPNQVSSQVSWPQLLYTYQLLHSLELVLSRAVRDLLLLSLPRRPGSAWDSGGGGSGGGGSGGGGSGGGGSGGGGSYTETALVALSQPRVQCHASRYPVAVDCSWTPLQAPNSTRSTSFIATYRLGVATQQQSQPCLQRSPQASRCTIPDVHLFSTVPYMLNVTAVHPGGASSSLLAFVAERIIKPDPPEGVRLRTAGQRLQVLWHPPASWPFPDIFSLKYRLRYRRRGASHFRQVGPIEATTFTLRNSKPHAKYCIQVSAQDLTDYGKPSDWSLPGQVESAPHKPGGGGSGGGGSGGGGSESKYGPPCPPCPAPPVAGPSVFLFPPKPKDTLMISRTPEVTCVVVDVSQEDPEVQFNWYVDGVEVHNAKTKPREEQFNSTYRVVSVLTVLHQDWLNGKEYKCKVSNKGLPSSIEKTISKAKGQPREPQVYTLPPSQEEMTKNQVSLTCLVKGFYPSDIAVEWESNGQPENNYKTTPPVLDSDGSFFLYSRLTVDKSRWQEGNVFSCSVMHEALHNHYTQKSLSLSLGK
In the case of B5, the “EC50 (M), STAT3 luciferase, MC9 cells” value turned out to be 8.63e-10 M and the “FOLD INDUCTION” value stood at 3.02 fold.

B6: IL27M4, Bivalent Fc-EBI3-p28 (Fc fusion)
chain: ESKYGPPCPPCPAPPVAGPSVFLFPPKPKDTLMISRTPEVTCVVVDVSQEDPEVQFNWYVDGVEVHNAKTKPREEQFNSTYRVVSVLTVLHQDWLNGKEYKCKVSNKGLPSSIEKTISKAKGQPREPQVYTLPPSQEEMTKNQVSLTCLVKGFYPSDIAVEWESNGQPENNYKTTPPVLDSDGSFFLYSRLTVDKSRWQEGNVFSCSVMHEALHNHYTQKSLSLSLGKGGGGSGGGGSGGGGSYTETALVALSQPRVQCHASRYPVAVDCSWTPLQAPNSTRSTSFIATYRLGVATQQQSQPCLQRSPQASRCTIPDVHLFSTVPYMLNVTAVHPGGASSSLLAFVAERIIKPDPPEGVRLRTAGQRLQVLWHPPASWPFPDIFSLKYRLRYRRRGASHFRQVGPIEATTFTLRNSKPHAKYCIQVSAQDLTDYGKPSDWSLPGQVESAPHKPGGGGSGGGGSGGGGSGGGGSFPTDPLSLQELRREFTVSLYLARKLLSEVQGYVHSFAESRLPGVNLDLLPLGYHLPNVSLTFQAWHHLSDSERLCFLATTLRPFPAMLGGLGTQGTWTSSEREQLWAMRLDLRDLHRHLRFQVLAAGFKCSKEEEDKEEEEEEEEEEKKLPLGALGGPNQVSSQVSWPQLLYTYQLLHSLELVLSRAVRDLLLLSLPRRPGSAWDS
B6: the “EC50 (M), STAT3 luciferase, MC9 cells” value was 4.71e-10 M and the “FOLD INDUCTION” value was 2.78 fold.
